Test results published in US20140127211A1 (Pfizer, published 2014).

How the values were obtained:
[1] = biological target: T1, human Notch3 NRR recombinant protein (Notch3 NRR_Avi_His tag) (human); assay: ELISA, plate-coated recombinant protein
T1 construct: Purified from CHO-PACE cells; the entry includes the C-terminal Avi and His6 tag
T1 chain: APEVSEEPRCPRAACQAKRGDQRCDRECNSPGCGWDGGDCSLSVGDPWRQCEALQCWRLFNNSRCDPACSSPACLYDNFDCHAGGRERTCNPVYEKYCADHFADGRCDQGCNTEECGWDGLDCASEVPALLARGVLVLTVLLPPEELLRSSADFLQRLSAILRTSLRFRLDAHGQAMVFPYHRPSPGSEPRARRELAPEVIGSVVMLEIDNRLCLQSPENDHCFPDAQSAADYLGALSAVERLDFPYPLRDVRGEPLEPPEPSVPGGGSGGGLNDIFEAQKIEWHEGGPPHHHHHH
Method: (§1) Purified human or mouse Notch3 NRR recombinant proteins were coated on CoStar hi-bound 96-well ELISA plates in 100 μl of PBS with Mg/Ca at a concentration of 1 μg/ml overnight. The plates were washed with PBS-Mg/Ca and blocked for 1 hour with 1% BSA in PBS-Mg/Ca. Blocking solution was decanted from the plate and 1:3 serial dilutions of antibodies in blocking solutions were applied to the plate. After incubation at room temperature for 1 hour, plates were washed again with PBS-Mg/Can before HRP (horse radish peroxidase)-conjugated secondary antibody diluted (1:20,000) in blocking buffer was applied. When the primary antibody tested was rat IgG, the secondary antibody was goat anti-rat IgG Fc (Bethyl Biotech); and when the primary antibody was human IgG, the secondary antibody was goat anti-human IgG Fc (Southern Biotech).
(§2) After 1 hour incubation with the secondary antibody, plates were washed again, as described above, and TMB substrate solution was added. The developing reaction was allowed for 10 minutes before the stopping solution, 0.18M H₂SO₄, was added.

[2] = biological target: T2, mouse Notch3 NRR recombinant protein (Notch3 NRR_Avi_His tag) (mouse); assay: ELISA, plate-coated recombinant protein
T2 construct: The entry includes the C-terminal Avi and His tag; S1-cleaved heterodimer as for the human protein
T2 chain: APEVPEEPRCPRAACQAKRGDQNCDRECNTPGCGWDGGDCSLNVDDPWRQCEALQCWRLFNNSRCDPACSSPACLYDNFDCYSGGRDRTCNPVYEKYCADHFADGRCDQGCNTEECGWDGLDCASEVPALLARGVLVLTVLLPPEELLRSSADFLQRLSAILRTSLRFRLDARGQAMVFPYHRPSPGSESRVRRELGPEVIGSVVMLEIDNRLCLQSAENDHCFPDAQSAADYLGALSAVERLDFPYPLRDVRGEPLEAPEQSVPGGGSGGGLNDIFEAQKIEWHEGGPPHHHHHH
Method: as §1, §2

[3] = biological target: T3, full-length human Notch3 expressed on the cell surface (human, UniProt Q9UM47 40-2321); assay: cell-based ELISA, U2OS/hNotch3 cells
T3 construct: whole, on cells; also called hNotch3; U2OS/hNotch3
T3 sequence (Q9UM47 40-2321): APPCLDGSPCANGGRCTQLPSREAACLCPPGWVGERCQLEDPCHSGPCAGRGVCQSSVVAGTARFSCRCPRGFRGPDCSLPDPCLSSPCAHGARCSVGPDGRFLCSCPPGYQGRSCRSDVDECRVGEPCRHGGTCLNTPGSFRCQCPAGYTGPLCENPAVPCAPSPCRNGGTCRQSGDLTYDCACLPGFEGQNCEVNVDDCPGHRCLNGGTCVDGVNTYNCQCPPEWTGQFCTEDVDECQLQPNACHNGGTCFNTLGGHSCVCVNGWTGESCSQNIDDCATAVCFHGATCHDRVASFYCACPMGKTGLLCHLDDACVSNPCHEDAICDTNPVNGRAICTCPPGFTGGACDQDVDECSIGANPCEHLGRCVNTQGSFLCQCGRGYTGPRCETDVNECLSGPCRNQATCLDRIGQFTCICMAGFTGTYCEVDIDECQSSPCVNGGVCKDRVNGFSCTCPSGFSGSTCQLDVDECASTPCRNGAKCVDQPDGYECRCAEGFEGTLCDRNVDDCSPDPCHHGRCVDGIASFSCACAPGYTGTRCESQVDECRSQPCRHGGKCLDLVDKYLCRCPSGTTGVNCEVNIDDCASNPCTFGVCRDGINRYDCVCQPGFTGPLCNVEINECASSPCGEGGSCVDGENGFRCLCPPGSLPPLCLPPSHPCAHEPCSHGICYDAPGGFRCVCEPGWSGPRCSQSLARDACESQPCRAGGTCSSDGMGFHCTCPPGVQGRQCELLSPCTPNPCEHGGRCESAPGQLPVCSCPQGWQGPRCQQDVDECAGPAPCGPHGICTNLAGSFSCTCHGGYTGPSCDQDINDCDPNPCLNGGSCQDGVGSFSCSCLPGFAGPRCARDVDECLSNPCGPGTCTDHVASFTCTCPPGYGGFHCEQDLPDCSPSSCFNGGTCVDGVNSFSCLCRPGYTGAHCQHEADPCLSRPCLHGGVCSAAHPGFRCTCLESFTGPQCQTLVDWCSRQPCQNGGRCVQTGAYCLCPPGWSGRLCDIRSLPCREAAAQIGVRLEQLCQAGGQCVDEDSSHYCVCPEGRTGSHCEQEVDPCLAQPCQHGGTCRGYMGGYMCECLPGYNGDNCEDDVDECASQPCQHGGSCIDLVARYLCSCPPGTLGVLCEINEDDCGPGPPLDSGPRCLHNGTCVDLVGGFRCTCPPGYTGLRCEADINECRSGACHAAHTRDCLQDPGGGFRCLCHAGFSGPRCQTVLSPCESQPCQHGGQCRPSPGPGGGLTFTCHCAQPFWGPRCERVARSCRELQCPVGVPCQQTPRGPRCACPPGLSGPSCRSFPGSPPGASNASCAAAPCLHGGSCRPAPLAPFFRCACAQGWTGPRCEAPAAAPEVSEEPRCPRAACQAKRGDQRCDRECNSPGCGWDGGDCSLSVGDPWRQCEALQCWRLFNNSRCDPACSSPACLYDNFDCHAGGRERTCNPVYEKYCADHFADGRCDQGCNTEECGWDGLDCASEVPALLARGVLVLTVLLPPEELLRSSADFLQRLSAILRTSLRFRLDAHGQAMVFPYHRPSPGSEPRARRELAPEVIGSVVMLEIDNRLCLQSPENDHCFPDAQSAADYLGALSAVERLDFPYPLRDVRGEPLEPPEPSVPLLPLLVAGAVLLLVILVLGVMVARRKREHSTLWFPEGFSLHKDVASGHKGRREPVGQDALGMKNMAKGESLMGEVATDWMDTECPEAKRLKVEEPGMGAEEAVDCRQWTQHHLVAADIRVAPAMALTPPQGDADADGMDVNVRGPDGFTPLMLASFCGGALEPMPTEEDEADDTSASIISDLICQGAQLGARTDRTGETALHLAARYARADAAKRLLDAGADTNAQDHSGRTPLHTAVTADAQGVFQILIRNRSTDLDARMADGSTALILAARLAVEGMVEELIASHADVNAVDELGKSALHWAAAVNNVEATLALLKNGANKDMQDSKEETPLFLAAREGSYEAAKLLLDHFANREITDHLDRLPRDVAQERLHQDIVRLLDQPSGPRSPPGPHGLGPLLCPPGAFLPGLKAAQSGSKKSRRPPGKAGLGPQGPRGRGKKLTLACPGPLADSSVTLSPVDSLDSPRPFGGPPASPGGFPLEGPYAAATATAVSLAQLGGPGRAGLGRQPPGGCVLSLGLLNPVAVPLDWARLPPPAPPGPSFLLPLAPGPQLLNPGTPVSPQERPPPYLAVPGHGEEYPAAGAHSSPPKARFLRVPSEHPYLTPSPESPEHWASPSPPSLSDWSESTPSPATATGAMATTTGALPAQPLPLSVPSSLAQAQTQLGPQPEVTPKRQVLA
Method: (§3) U-2 OS cells stably over-expressing human or mouse full length Notch3 protein on cell surface (hereinafter U2OS/hNotch3 and U2OS/mNotch3, respectively) were plated at 50,000 cells/well in 96 well plates (white opaque, BD/VWR) the day before ELISA assay. On the day of the ELISA, culture media was removed from wells and serially diluted (1:3 in blocking buffer) antibody solutions were applied to the plate. Plates were incubated at room temperature for 2 hours before being washed with PBS-Mg/Ca. HRP-conjugated secondary antibody was then applied and incubated with cells for 1 hour as described above for recombinant protein ELISA. Plates were washed with PBS-Mg/Ca before being developed with Pico-Chemiluminescent developing kit (Thermal Scientific), and chemiluminescence measurements were performed per manufacturer's instructions. Data plotting and analyses were performed with Microsoft Excel and Graphpad-Prism software.

[4] = biological target: T4, full-length mouse Notch3 expressed on the cell surface (mouse, UniProt Q61982 40-2318); assay: cell-based ELISA, U2OS/mNotch3 cells
T4 construct: whole, on cells; Over-expressed on U-2 OS cells; also called U2OS/mNotch3
T4 sequence (Q61982 40-2318): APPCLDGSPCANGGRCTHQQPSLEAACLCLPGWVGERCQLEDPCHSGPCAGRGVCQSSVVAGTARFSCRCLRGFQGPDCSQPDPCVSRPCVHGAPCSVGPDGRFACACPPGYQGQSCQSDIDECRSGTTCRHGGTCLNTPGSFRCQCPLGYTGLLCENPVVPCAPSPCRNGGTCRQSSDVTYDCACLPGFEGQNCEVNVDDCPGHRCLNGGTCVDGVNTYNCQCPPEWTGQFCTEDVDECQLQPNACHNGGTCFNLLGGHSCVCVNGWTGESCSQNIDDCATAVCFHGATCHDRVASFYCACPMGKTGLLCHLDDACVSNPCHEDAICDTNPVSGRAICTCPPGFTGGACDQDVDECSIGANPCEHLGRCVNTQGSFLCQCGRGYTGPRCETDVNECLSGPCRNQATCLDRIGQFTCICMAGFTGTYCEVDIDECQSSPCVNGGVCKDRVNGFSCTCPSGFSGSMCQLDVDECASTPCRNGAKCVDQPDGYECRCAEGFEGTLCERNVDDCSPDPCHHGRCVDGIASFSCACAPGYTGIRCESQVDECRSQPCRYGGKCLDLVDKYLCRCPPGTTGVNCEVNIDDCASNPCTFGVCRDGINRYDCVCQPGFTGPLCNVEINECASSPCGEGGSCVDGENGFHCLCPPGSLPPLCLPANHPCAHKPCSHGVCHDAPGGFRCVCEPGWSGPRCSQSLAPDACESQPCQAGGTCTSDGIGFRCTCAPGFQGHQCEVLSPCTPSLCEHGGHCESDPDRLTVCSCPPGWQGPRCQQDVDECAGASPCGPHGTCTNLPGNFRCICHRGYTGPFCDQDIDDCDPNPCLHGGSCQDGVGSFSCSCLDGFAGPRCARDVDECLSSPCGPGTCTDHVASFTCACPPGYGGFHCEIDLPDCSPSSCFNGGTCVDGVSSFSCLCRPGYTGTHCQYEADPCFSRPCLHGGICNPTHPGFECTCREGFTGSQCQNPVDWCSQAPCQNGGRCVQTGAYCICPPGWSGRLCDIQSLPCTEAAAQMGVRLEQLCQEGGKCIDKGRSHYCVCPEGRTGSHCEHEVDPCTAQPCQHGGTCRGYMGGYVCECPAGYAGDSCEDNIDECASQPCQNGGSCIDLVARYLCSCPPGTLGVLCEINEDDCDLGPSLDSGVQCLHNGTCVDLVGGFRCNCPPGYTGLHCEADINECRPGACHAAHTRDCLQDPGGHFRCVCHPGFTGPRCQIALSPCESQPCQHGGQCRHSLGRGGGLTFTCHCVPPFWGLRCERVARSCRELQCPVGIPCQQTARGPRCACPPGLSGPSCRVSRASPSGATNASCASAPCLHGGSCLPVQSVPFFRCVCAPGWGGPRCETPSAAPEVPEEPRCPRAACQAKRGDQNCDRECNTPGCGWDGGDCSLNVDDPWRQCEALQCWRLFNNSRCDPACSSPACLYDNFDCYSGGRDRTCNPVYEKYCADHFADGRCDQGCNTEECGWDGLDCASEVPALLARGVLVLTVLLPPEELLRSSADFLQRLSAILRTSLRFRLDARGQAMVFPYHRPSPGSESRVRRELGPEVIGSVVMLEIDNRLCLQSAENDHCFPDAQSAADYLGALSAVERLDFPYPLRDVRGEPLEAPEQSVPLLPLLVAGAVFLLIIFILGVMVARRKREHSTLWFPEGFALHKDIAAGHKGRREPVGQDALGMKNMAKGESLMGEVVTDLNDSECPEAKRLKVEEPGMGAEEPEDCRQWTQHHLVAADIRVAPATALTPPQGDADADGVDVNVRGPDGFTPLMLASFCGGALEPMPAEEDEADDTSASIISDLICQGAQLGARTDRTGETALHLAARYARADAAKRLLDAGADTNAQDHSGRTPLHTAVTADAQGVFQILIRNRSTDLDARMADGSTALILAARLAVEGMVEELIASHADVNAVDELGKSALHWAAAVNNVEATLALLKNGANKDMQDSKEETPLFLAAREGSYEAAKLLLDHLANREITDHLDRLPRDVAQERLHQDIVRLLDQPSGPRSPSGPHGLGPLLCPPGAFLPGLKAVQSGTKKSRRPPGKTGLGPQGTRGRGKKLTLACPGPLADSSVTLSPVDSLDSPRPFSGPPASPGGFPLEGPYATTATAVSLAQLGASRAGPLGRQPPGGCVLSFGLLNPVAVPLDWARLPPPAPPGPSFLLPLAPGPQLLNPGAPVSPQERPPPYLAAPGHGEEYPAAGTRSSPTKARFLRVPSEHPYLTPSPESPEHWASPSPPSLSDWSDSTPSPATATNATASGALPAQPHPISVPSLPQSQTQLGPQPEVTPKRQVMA
Method: as §3

[5] = biological target: T3, full-length human Notch3 expressed on …; assay: competition ELISA on U2OS/hNotch3 cells; competitor 0.8 nM biotinylated ch28
Method: 96 well cell culture plates were seeded with U2OS/hNotch3 cells (cell culture plate, Co-star). […] After incubation for 2 hours, the plates were washed, as described above, and HRP-conjugated streptavidin (Southern Biotech) diluted 1:5000 in blocking buffer was applied. After incubation with streptavidin for 30 minutes, the plates were washed again before being developed with TMB solution for 10 minutes. […] Data plotting and analyses were performed with Microsoft Excel and Graphpad-Prism software.

[6] = biological target: T1, human Notch3 NRR recombinant protein …; assay: SPR (Biacore T100), antibody captured on anti-human IgG-Fc, Notch3 NRR as analyte, 1:1 Langmuir fit
Method: The kinetic constants of the anti-Notch3 NRR interactions were determined by surface plasmon resonance (Biacore® T100, Biacore Inc., Piscataway, N.J.). Flow cells of a CM5 chip were immobilized with approximately 10,000 response units (RU) of anti-human IgG-Fc (Biacore®) in 10 mM Glycine, pH 5.0 at 10 μl/min for 600 seconds. […] Association of four concentrations of human Notch3 NRR recombinant protein (from 3.7-100 nM) and a zero concentration (running buffer) at 100 μl/min were recorded for 3 minutes in TBS with 1 mM CaCl₂. Dissociation of the complexes was measured for 10 minutes. The surface of the chip was regenerated by injecting 3M MgCl₂ with 3 mM EGTA for 60 seconds at 10 μl/min. Curves obtained after subtraction of the reference and buffer signals were fitted to a 1:1 Langmuir binding model with Biacore® T100 Evaluation Software (Biacore®).

[7] = biological target: T5, Notch 1-3 NRR domain swap chimera: A of Notch1; B, C, hd1, hd2 of Notch3 (row 4, unnamed on the sheet) (human); assay: ELISA: NRR-Fc protein coated at 1 ug/ml, antibody applied at 5 ug/ml, goat anti-human Fc-HRP, TMB, O.D. 450 nM
T5 construct: part of the NRR
Method: (§4) After 1 hour of incubation, plates were washed with PBS with 0.9 mM Mg²⁺ and Ca²⁺, before secondary goat anti-human Fc antibody conjugated with HRP were applied and incubated on the plates. After washing again, the plates were developed with TMB and the developing reactions were stopped by adding 0.18M H₂SO₄.

[8] = biological target: T6, Notch 1-3 NRR domain swap chimera: B of Notch1; A, C, hd1, hd2 of Notch3 (row 5, unnamed on the sheet) (human); assay: as above
T6 construct: part of the NRR
Method: as §4

[9] = biological target: T7, Notch 1-3 NRR domain swap chimera: hd2 of Notch1; A, B, C, hd1 of Notch3 (row 8, unnamed on the sheet) (human); assay: as above
T7 construct: part of the NRR
Method: as §4

Notch3-NRR = Notch3-NRR (human); assay: as above
Method: as §4

human Notch1 NRR-Fc = biological target: T8, human Notch1 NRR-Fc (human, UniProt P46531 1446-1733, limits assumed); assay: as above
T8 construct: domain: NRR region; Made in CHO-PACE cells; not shown: human IgG1 Fc fragment
T8 sequence (looked up): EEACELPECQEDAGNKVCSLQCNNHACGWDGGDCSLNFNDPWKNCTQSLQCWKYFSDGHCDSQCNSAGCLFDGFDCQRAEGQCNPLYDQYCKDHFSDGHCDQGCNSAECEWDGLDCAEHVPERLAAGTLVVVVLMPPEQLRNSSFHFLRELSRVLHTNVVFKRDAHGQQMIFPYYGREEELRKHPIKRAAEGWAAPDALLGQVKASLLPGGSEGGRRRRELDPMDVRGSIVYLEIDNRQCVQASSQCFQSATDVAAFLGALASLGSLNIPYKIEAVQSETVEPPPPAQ

[10] = biological target: T1, human Notch3 NRR recombinant protein …; assay: ELISA, recombinant protein, hybridoma supernatant
[11] = biological target: T4, full-length mouse Notch3 expressed on …; assay: cell-based ELISA, U-2 OS cells over-expressing mouse Notch3
[12] = biological target: T3, full-length human Notch3 expressed on …; assay: cell-based or functional assay
[13] = biological target: T3, full-length human Notch3 expressed on …; assay: cell-based or functional assay; remark: listed apart in the source
[14] = biological target: T3, full-length human Notch3 expressed on …; assay: cell-based ELISA, HCC2429 cells; SD 0.063
Method: (§5) On the day of the ELISA, culture media was removed from wells and serially diluted (1:3 in DPBS with calcium chloride and magnesium chloride (Ca/Mg) and 1% BSA) antibody and ADC solutions were applied to the plate. Plates were incubated at room temperature for 2 hours before washed with DPBS with Ca/Mg and 1% BSA. HRP-conjugated secondary antibody was then applied and incubated with cells for 1 hour. Plates were washed with DPBS with Ca/Mg and 1% BSA before being developed with Pico-Chemiluminescent developing kit (Thermal Scientific), and chemiluminescence measurements were performed per manufacturer's instructions. Data plotting and analyses were performed with Microsoft Excel and Graphpad-Prism software.

[15] = biological target: T3, full-length human Notch3 expressed on …; assay: cell-based ELISA, MDA-MB-468 cells; SD 0.062
Method: as §5

[16] = biological target: T3, full-length human Notch3 expressed on …; assay: cell-based ELISA, U2OS/hNotch3 cells; SD 0.041
Method: as §5

[17] = biological target: T3, full-length human Notch3 expressed on …; assay: cell-based ELISA, HCC2429 cells; SD 0.115
Method: as §5

[18] = biological target: T3, full-length human Notch3 expressed on …; assay: cell-based ELISA, MDA-MB-468 cells; SD 0.167
Method: as §5

[19] = biological target: T3, full-length human Notch3 expressed on …; assay: cell-based ELISA, U2OS/hNotch3 cells; SD 0.057
Method: as §5

B1: rat-human chimeric antibody 28 (ch28) (antibody, V domains shown)
VH: EVQLVESGGGLVQPGRSLTLSCVASGFTFRDYGMTWIRQAPGKGLTWVAYISSGSNYIYYAEAVKGRFTISRDNAKNTLYLQMTSLRSEDTALYFCTRRGPFVLDAWGQGASVTVSS
VL: DIQMTQSPSFLSASVGDRVTINCKASQSINRYLHWFQQKLGEAPKLLIYNANGLQTGIPSRFSGSGSGTDFTLTISSLQSEDVATYFCLQHNTWPDTFGAGTKLELK
notes: also called ch28-hIgG1; ch28-hulgG1
EC50 [1]: ≤ 1 nM | EC50 [2]: ≤ 1 nM | EC50 [3]: 0.098 nM | EC50 [4]: 0.13 nM | EC50 [5]: 3 nM | Kd [6]: 0.61 nM | koff [6]: 0.000249 s⁻¹ | kon [6]: 409000 M⁻¹ s⁻¹ | O.D. 450 nM (ELISA, relative binding capacity) [7]: 0.15 | O.D. 450 nM (ELISA, relative binding capacity) [8]: 0.54 | O.D. 450 nM (ELISA, relative binding capacity) [9]: 0.5 | O.D. 450 nM (ELISA, relative binding capacity) (Notch3-NRR): 2.06 | binding result (human Notch1 NRR-Fc): no binding (tested: 5 ug/ml)

B2: parental rat clone 75 (r75) (antibody, V domains shown)
VH: QVKLLQSGAALVKPGASVKMSCKASGYAFTDYWVTWVKQSHGKSLEWIGEISPNSGGTNFNEKFKGKATLTVDKSTSTAYMELSRLTSEDSAIYYCTRGEIRYNWFAYWGQGTLVTVSS
VL: NIVMTQSPKSMSISVGDRVTMNCKASQNVGNNIAWYQQKPGQSPKLLIYYASNRYTGVPDRFTGGGYGTDFTLTINSMQAEDAAFYYCQRLYNSPFTFGSGTKLEIK
notes: Rat monoclonal antibody from hybridoma, tested as hybridoma supernatant
O.D. 450 nM [10]: ≥ 1 O.D. 450 nM | binding result [11]: no binding

B3: hu75-vc6780 (Notch3-75-v1913-hG1-(C)_mcValCitPABC-#112) (antibody, human IgG1, kappa, V domains shown)
VH: EVQLVESGGGLVQPGGSLRLSCAASGYAFTDYWMTWVRQAPGKGLEWVAEISPNSGGTNFNEKFKGRFTISVDNAKNSLYLQMNSLRAEDTAVYYCARGEIRYNWFAYWGQGTLVTVSS
VL: DIQMTQSPSSLSASVGDRVTITCKASQNVGNNIAWYQQKPGKAPKLLIYYASNRYTGVPSRFSGSGYGTDFTLTISSLQPEDFATYYCQRLYNSPFTFGGGTKVEIKR
modifications: vc6780 linker-payload on cysteine residues after partial reduction; sites not specified
notes: Antibody-drug conjugate of hu75
IC50 of cytotoxicity (MTS viability), HCC2429 cells, repeat 1 [12]: 214 ng Ab/mL | IC50 of cytotoxicity (MTS viability), HCC2429 cells, repeat 2 [12]: 630 ng Ab/mL | IC50 of cytotoxicity (MTS viability), MDA-MB-468/hNotch3 cells, repeat 1 [12]: 26 ng Ab/mL | IC50 of cytotoxicity (MTS viability), MDA-MB-468/hNotch3 cells, repeat 2 [12]: 25 ng Ab/mL | IC50 of cytotoxicity (MTS viability), OVCAR3 cells [12]: 254 ng Ab/mL | IC50 of cytotoxicity, MDA-MB-468/hNotch3 cells, Notch3 siRNA (reduced Notch3 expression) [13]: 7980 ng Ab/mL | IC50 of cytotoxicity, MDA-MB-468/hNotch3 cells, control siRNA [13]: 17 ng Ab/mL | EC50 [14]: 0.343 nM | EC50 [15]: 1.8 nM | EC50 [16]: 0.723 nM

B4: hu75-vc0101 (Notch3-75-v1913-hG1-(C)_mcValCitPABC-#54) (antibody, human IgG1, kappa, V domains shown)
VH: B3 VH
VL: B3 VL
modifications: vc0101 linker-payload on cysteine residues after partial reduction; sites not specified
notes: as for B3
IC50 of cytotoxicity (MTS viability), HCC2429 cells, repeat 1 [12]: 611 ng Ab/mL | IC50 of cytotoxicity (MTS viability), HCC2429 cells, repeat 2 [12]: 3300 ng Ab/mL | IC50 of cytotoxicity (MTS viability), MDA-MB-468/hNotch3 cells, repeat 1 [12]: 37 ng Ab/mL | IC50 of cytotoxicity (MTS viability), MDA-MB-468/hNotch3 cells, repeat 2 [12]: 36 ng Ab/mL | IC50 of cytotoxicity (MTS viability), MDA-MB-468 cells [12]: 7000 ng Ab/mL | IC50 of cytotoxicity (MTS viability), OVCAR3 cells [12]: 515 ng Ab/mL | IC50 of cytotoxicity (MTS viability), U2OS/hNotch3 cells [12]: 523 ng Ab/mL | IC50 of cytotoxicity, MDA-MB-468/hNotch3 cells, Notch3 siRNA (reduced Notch3 expression) [13]: 3190 ng Ab/mL | IC50 of cytotoxicity, MDA-MB-468/hNotch3 cells, control siRNA [13]: 29 ng Ab/mL | EC50 [17]: 0.427 nM | EC50 [18]: 2.02 nM | EC50 [19]: 0.798 nM
